The text below walks through data of US20180362585A1 (Bicycle, published 2018).

Numbered stars: 1 amine (or outer) side, 2 acyl side, 3 side chain; on linkers, the order of the positions; unused ones are H or OH. Bridge positions count the residues as written; N and C are the ends. Ends that are not written are not given here. TBMB = c1c(C[*:1])cc(C[*:3])cc1C[*:2]

T1 sequence (P03952 20-638 limits assumed): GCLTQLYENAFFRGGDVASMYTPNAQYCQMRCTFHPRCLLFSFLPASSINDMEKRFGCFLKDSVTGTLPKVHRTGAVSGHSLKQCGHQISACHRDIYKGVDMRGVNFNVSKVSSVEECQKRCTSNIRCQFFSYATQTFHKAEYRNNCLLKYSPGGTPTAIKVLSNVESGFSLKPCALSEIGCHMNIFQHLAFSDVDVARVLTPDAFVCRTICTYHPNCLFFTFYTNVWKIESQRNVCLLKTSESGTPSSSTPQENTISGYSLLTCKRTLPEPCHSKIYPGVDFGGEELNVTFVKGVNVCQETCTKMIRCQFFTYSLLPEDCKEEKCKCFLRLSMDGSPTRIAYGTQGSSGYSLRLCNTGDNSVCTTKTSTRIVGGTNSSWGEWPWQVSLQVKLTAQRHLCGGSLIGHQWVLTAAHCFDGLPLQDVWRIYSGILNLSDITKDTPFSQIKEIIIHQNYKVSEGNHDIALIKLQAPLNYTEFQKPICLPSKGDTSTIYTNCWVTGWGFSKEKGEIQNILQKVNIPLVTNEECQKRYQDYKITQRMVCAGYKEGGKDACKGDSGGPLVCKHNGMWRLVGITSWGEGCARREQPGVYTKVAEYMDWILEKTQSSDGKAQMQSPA

The first assay addresses T1, human plasma Kallikrein (human, UniProt P03952 20-638).
T1 construct: also called hPK; human PK
Kind of assay: phage binding assay. The protocol: Library transformant colonies, or selection output colonies, were picked and grown as individual cultures in 2TY broth containing selective antibiotic. The picked colonies were DNA-sequenced using a QIAgen PyroMark Q96 DNA sequencer to reveal the amino-acid substitution present in each clone, and were assayed for human plasma Kallikrein binding as follows. The phage-containing supernatant was harvested from the culture and phage were cyclised with tris bromomethyl benzene (TBMB) based on the methods of Heinis et al (Nature Chemical Biology vol. 5 pp 502-507 (2009)). The purified phage from this process were assayed for binding to biotinylated human plasma Kallikrein using a homogeneous plate-based binding assay; assay read-out measured on a BMG Labtech Pherastar FS plate reader. The quantitative binding data from duplicate assay samples was averaged (mean) and expressed as signal:background. […] The assay data was correlated with the peptide sequences.
Selections against human plasma Kallikrein were performed at a variety of stringencies (see Phage selections' in Methods above). All output sequences were identified and analysed for target binding (see ‘Randomisation of peptide domains—Assay of binding of individual clones’ in Methods above). Table 17 lists each unique sequence, its relative abundance in the selection output (frequency), and a rank number according to target binding strength.
Regarding CRFPFKCTHQDLC (linker 1-7-13 via TBMB (inferred), on phage), the “RANK (Kallikrein binding)” value came to 11.
With CSFLYKCTHQDLC (linker 1-7-13 via TBMB (inferred), on phage), the “RANK (Kallikrein binding)” value was found to be 29.
Still for that read-out and setting: under CSFPFWCTHQDLC (linker 1-7-13 via TBMB (inferred), on phage) stands 34; under CSFMYKCTHQDLC (linker 1-7-13 via TBMB (inferred), on phage), 37; under CSFPFKCTHQDLC (linker 1-7-13 via TBMB (inferred), on phage), 6.

Another assay deals with T1, human plasma Kallikrein. As to the kind of experiment: phage binding assay. The source holds these as a separate data set.
In the case of CQWPARCMHQDMC (linker 1-7-13 via TBMB (inferred), on phage), the “BINDING ASSAY SIGNAL” value was found to be 75.
CAWPARCTHADLC (linker 1-7-13 via TBMB, on phage): the “BINDING ASSAY SIGNAL” value was 79.
On the same count and under the same terms, to CPWPARCTHQNLC (linker 1-7-13 via TBMB (inferred), on phage) belongs 69.
Still for that read-out and setting: under CSWPARCIHQDLC (linker 1-7-13 via TBMB, on phage) stands 68; under CAWPARCTHYDLC (linker 1-7-13 via TBMB, on phage), 70.
The same measure, in the same setting: under CRWPARCTHQDLC (linker 1-7-13 via TBMB (inferred), on phage) stands 73.
In the case of CVWPARCTHQDLC (linker 1-7-13 via TBMB, on phage), the “BINDING ASSAY SIGNAL” value was determined as 71.
Take CTWPARCTHTDMC (linker 1-7-13 via TBMB, on phage): the “BINDING ASSAY SIGNAL” value amounted to 67.
With CNWPARCTHQDLC (linker 1-7-13 via TBMB (inferred), on phage), the “BINDING ASSAY SIGNAL” value was found to be 116.
Same read-out and setting: under CPWPARCLHTDLC (linker 1-7-13 via TBMB (inferred), on phage) stands 58.
Same read-out and setting: to CHWPARCTHQELC (linker 1-7-13 via TBMB, on phage) belongs 85; to CHWPARCMHQDLC (linker 1-7-13 via TBMB, on phage), 71.
The same measure, in the same setting: under CAWPARCTHTDLC (linker 1-7-13 via TBMB, on phage) stands 92; under CPWPARCTHTDLC (linker 1-7-13 via TBMB (inferred), on phage), 70.
As for CTWPARCTHADLC (linker 1-7-13 via TBMB, on phage), the “BINDING ASSAY SIGNAL” value came out at 71.
On the same count and under the same terms, to CMWPARCMHQDLC (linker 1-7-13 via TBMB (inferred), on phage) belongs 79; to CPWPARCTHQDLC (linker 1-7-13 via TBMB (inferred), on phage), 107; to CAWPARCTHTDFC (linker 1-7-13 via TBMB, on phage), 80.
In the case of CLWPARCTHADLC (linker 1-7-13 via TBMB, on phage), the “BINDING ASSAY SIGNAL” value worked out at 74.
Same read-out and setting: to CEWPARCLHTDLC (linker 1-7-13 via TBMB, on phage) belongs 60; to CAWPARCTHVDLC (linker 1-7-13 via TBMB, on phage), 82.
Same read-out and setting: to CSWPARCTHADLC (linker 1-7-13 via TBMB, on phage) belongs 100.
On the same count and under the same terms, to CSWPARCTHSHLC (linker 1-7-13 via TBMB, on phage) belongs 72.
Turning to CRWPARCTHTDLC (linker 1-7-13 via TBMB (inferred), on phage), the “BINDING ASSAY SIGNAL” value stood at 59.
Take CTWPARCTHTDLC (linker 1-7-13 via TBMB, on phage): the “BINDING ASSAY SIGNAL” value was found to be 88.
As to CSWPARCTHSDLC (linker 1-7-13 via TBMB, on phage), the “BINDING ASSAY SIGNAL” value was determined as 59.
The same measure, in the same setting: to CHWPARCTHQDLC (linker 1-7-13 via TBMB, on phage) belongs 110.
On the same count and under the same terms, under CAWPARCTHTHLC (linker 1-7-13 via TBMB, on phage) stands 66; under CLWPARCTHQDLC (linker 1-7-13 via TBMB, on phage), 90; under CQWPARCTHSDLC (linker 1-7-13 via TBMB (inferred), on phage), 74.
For CTWPARCTHQAFC (linker 1-7-13 via TBMB, on phage), the “BINDING ASSAY SIGNAL” value is 59.
For CAWPARCTHQTMC (linker 1-7-13 via TBMB, on phage), the “BINDING ASSAY SIGNAL” value was determined as 61.
The same measure, in the same setting: to CSWPARCVHQDMC (linker 1-7-13 via TBMB, on phage) belongs 61; to CAWPARCMHDDLC (linker 1-7-13 via TBMB, on phage), 69; to CSWPARCTHAEMC (linker 1-7-13 via TBMB, on phage), 59.
On the same count and under the same terms, under CTWPARCLHQDLC (linker 1-7-13 via TBMB, on phage) stands 73; under CSWPARCTHTELC (linker 1-7-13 via TBMB, on phage), 69.
On the same count and under the same terms, to CSWPARCLHTELC (linker 1-7-13 via TBMB, on phage) belongs 68.
For CQWPARCMHQELC (linker 1-7-13 via TBMB (inferred), on phage), the “BINDING ASSAY SIGNAL” value was 73.
Still for that read-out and setting: under CAWPARCLHQDWC (linker 1-7-13 via TBMB, on phage) stands 63; under CAWPARCLHADMC (linker 1-7-13 via TBMB, on phage), 66.
On to CTWPARCLHQHMC (linker 1-7-13 via TBMB, on phage), for which the “BINDING ASSAY SIGNAL” value was 61.
Same read-out and setting: under CDWPARCMHQEFC (linker 1-7-13 via TBMB, on phage) stands 63.
